Reference: patent US10138283 (AMBRX, dated 2018)
Where two headings read alike, the source gives them in different places. Values belong to the molecule of their own block, whether it stands above or below them. [ ]: non-standard residue; d: D form. Phe(4-Ac) = CC(=O)c1ccc(C[C@H](N)C(=O)O)cc1

Legend:
Experiment in all cases: cell-based or functional assay
[1] = target: T1, G-CSF receptor on M-NFS60 cells (UniProt P40223 26-837, limits assumed)
T1 sequence (looked up): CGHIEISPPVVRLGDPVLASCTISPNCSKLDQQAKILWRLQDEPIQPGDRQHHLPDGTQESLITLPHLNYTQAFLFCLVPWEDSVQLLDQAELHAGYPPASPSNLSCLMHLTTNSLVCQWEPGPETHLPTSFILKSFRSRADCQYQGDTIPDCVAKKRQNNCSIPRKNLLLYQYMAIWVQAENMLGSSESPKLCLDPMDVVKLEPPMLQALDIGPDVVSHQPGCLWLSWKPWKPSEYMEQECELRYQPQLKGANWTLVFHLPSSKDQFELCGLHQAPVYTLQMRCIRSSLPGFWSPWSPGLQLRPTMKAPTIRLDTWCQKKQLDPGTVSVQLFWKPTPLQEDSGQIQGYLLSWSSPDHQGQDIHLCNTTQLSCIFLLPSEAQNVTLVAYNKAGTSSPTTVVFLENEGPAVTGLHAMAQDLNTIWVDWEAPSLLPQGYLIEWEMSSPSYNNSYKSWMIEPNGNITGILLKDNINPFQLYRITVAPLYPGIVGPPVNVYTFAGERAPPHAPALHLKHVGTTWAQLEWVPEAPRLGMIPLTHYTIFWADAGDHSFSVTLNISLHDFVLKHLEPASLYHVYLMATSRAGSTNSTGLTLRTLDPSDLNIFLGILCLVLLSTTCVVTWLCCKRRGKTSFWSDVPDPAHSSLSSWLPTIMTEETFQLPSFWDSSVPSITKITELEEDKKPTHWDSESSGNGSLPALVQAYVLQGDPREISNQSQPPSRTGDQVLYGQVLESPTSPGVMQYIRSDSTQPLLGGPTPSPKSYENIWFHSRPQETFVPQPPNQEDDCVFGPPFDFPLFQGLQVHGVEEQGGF

[2] = target: T1, G-CSF receptor on M-NFS60 cells; remark: listed apart in the source
[3] = target: T1, G-CSF receptor on M-NFS60 cells; remark: listed apart in the source
[4] = target: T1, G-CSF receptor on M-NFS60 cells; remark: listed apart in the source
[5] = target: T1, G-CSF receptor on M-NFS60 cells; remark: listed apart in the source

B1: 20k PEG-bR166 (bG-CSF R166pAF, 20K PEG) (ligand)
chain: MTPLGPARSLPQSFLLKCLEQVRKIQADGAELQERLCAAHKLCHPEELMLLRHSLGIPQAPLSSCSSQSLQLTSCLNQLHGGLFLYQGLLQALAGISPELAPTLDTLQLDVTDFATNIWLQMEDLGAAPAVQPTQGAMPTFTSAFQRRAGGVLVASQLHRFLELAY[Phe(4-Ac)](PEG 20 kDa)GLRYLAEP
- M-NFS60 proliferation assay, Avg EC50 Values [2]: 0.363 ng/mL

B2: 20k PEG-bL3 (bG-CSF L3pAF, 20K PEG) (ligand)
chain: TP[Phe(4-Ac)](PEG 20 kDa)GPARSLPQSFLLKCLEQVRKIQADGAELQERLCAAHKLCHPEELMLLRHSLGIPQAPLSSCSSQSLQLTSCLNQLHGGLFLYQGLLQALAGISPELAPTLDTLQLDVTDFATNIWLQMEDLGAAPAVQPTQGAMPTFTSAFQRRAGGVLVASQLHRFLELAYRGLRYLAEP
modifications: not fully specified (N-terminus)
- M-NFS60 proliferation assay, Avg EC50 Values [3]: 0.477 ng/mL

B4: 20k PEG-bR7 (bG-CSF R7pAF, 20K PEG) (ligand)
chain: MTPLGPA[Phe(4-Ac)](PEG 20 kDa)SLPQSFLLKCLEQVRKIQADGAELQERLCAAHKLCHPEELMLLRHSLGIPQAPLSSCSSQSLQLTSCLNQLHGGLFLYQGLLQALAGISPELAPTLDTLQLDVTDFATNIWLQMEDLGAAPAVQPTQGAMPTFTSAFQRRAGGVLVASQLHRFLELAYRGLRYLAEP
- M-NFS60 proliferation assay, Avg EC50 Values [2]: 0.348 ng/mL

The next lines start with the values.

- M-NFS60 proliferation assay, Avg EC50 [ng/ml] [1]: 0.077 ng/mL
- M-NFS60 proliferation assay, Fold Diff EC50 [X] [1]: 3.2 fold
Molecule: Neulasta (pegfilgrastim) (from UniProt P09919 31-204) (ligand)

- M-NFS60 proliferation assay, Avg EC50 [ng/ml] [1]: 0.025 ng/mL
- M-NFS60 proliferation assay, Fold Diff EC50 [X] [1]: 1 fold
Molecule: Neupogen (filgrastim) (from UniProt P09919 31-204) (ligand)

- M-NFS60 proliferation assay, Avg EC50 [ng/ml] [4]: 0.053 ng/mL
- M-NFS60 proliferation assay, Fold Diff EC50 [X] [5]: 1 fold
B3: wild-type bovine G-CSF (ligand)
chain: MTPLGPARSLPQSFLLKCLEQVRKIQADGAELQERLCAAHKLCHPEELMLLRHSLGIPQAPLSSCSSQSLQLTSCLNQLHGGLFLYQGLLQALAGISPELAPTLDTLQLDVTDFATNIWLQMEDLGAAPAVQPTQGAMPTFTSAFQRRAGGVLVASQLHRFLELAYRGLRYLAEP

- M-NFS60 proliferation assay, Avg EC50 [ng/ml] (batch NK2) [4]: 0.27 ng/mL
- M-NFS60 proliferation assay, Fold Diff EC50 [X] vs. WT bG-CSF (batch NK2) [5]: 5.1 fold
- M-NFS60 proliferation assay, Avg EC50 Values (batch NK1) [2]: 0.258 ng/mL
B5: bG-CSF T133pAF-20K PEG (ligand)
chain: MTPLGPARSLPQSFLLKCLEQVRKIQADGAELQERLCAAHKLCHPEELMLLRHSLGIPQAPLSSCSSQSLQLTSCLNQLHGGLFLYQGLLQALAGISPELAPTLDTLQLDVTDFATNIWLQMEDLGAAPAVQP[Phe(4-Ac)](PEG 20 kDa (hydroxylamine/oxyamino PEG))QGAMPTFTSAFQRRAGGVLVASQLHRFLELAYRGLRYLAEP

- M-NFS60 proliferation assay, Avg EC50 Values [2]: 0.15 ng/mL
B6: 20k PEG-bS62 (bG-CSF S62pAF, 20K PEG) (ligand)
chain: MTPLGPARSLPQSFLLKCLEQVRKIQADGAELQERLCAAHKLCHPEELMLLRHSLGIPQAPL[Phe(4-Ac)](PEG 20 kDa)SCSSQSLQLTSCLNQLHGGLFLYQGLLQALAGISPELAPTLDTLQLDVTDFATNIWLQMEDLGAAPAVQPTQGAMPTFTSAFQRRAGGVLVASQLHRFLELAYRGLRYLAEP
